{"source": "patent US20110243928A1", "key": {"[1]": {"target": "Positive control 20 mer peptide (Mimotopes)", "assay": "16 mer peptide ELISA control well, control antibody diluted 16-fold"}, "[2]": {"target": "Negative control 20 mer peptide (Mimotopes)", "assay": "16 mer peptide ELISA control well, control antibody diluted 16-fold"}, "[3]": {"target": "Positive control 20 mer peptide (Mimotopes)", "assay": "16 mer peptide ELISA control well, control antibody diluted 32-fold"}, "[4]": {"target": "Negative control 20 mer peptide (Mimotopes)", "assay": "16 mer peptide ELISA control well, control antibody diluted 32-fold"}, "[5]": {"target": "Positive control 20 mer peptide (Mimotopes)", "assay": "16 mer peptide ELISA control well, control antibody diluted 4-fold"}, "[6]": {"target": "Negative control 20 mer peptide (Mimotopes)", "assay": "16 mer peptide ELISA control well, control antibody diluted 4-fold"}}, "note": "Where “and” joins values, the source holds several entries; their conditions need not be identical. Equal values may be shown once."}
{"substance": "Control Ab (Supplied with Mimotopes custom order) (antibody)", "values": [{"measurement": "absorbance at 490 nm", "setting": "[1]", "value": "1.2 A490 and 1.21 A490"}, {"measurement": "absorbance at 490 nm", "setting": "[2]", "value": "0.08 A490 and 0.082 A490"}, {"measurement": "absorbance at 490 nm", "setting": "[3]", "value": "0.739 A490 and 0.976 A490"}, {"measurement": "absorbance at 490 nm", "setting": "[4]", "value": "0.072 A490 and 0.103 A490"}, {"measurement": "absorbance at 490 nm", "setting": "[5]", "value": "1.5 A490 and 1.55 A490"}, {"measurement": "absorbance at 490 nm", "setting": "[6]", "value": "0.077 A490 and 0.072 A490"}]}
